Results: US20190352375A1

Target: Hemagglutinin of AIV A/duck/It/775/04(H5N3) (Influenza A virus A/duck/Italy/775/2004(H5N3))
Test: cell-based or functional assay

Row | Substance | HI titer
1 | mAb 7: Monoclonal Antibody to Influenza A (Hemagglutinin H5) H5N1 - Purified, Acris Antibodies AM00945PU-N | 2 µg/mL
2 | mAb 8: Monoclonal Antibody to Influenza A (Hemagglutinin H5) H5N1 - Purified, Acris Antibodies AM00941PU-N | 1 µg/mL
3 | mAb 9 (Pierce/Thermo Sci., Cat. No. MA1-81928) (antibody) | 7.8 µg/mL
